Laboratory results published in PMC7671035 (mAbs, 2020).

Experiments:
human CXCL1 = human CXCL1 (Homo sapiens, UniProt P09341)
human CXCL4 = human CXCL4 (Homo sapiens (Human)., UniProt P02776); test: ELISA
human CXCL10 = human CXCL10 (Homo sapiens (Human)., UniProt P02778); test: ELISA
human CXCL12 = human CXCL12 (Homo sapiens, UniProt P48061); test: ELISA
human CXCL13 = human CXCL13 (Homo sapiens (Human)., UniProt O43927); test: ELISA
human CXCL14 = human CXCL14 (Homo sapiens, UniProt O95715); test: ELISA
human CXCL16 = human CXCL16 (Homo sapiens, UniProt Q9H2A7); test: ELISA
human CXCL17 = human CXCL17 (Homo sapiens, UniProt Q6UXB2); test: ELISA
mouse CXCL1 = mouse CXCL1 (Mus musculus, UniProt P12850); test: SPR
mouse CXCL2 = mouse CXCL2 (Mus musculus, UniProt P10889); test: SPR
mouse CXCL3 = mouse CXCL3 (Mus musculus, UniProt Q6W5C0); test: SPR
rat CXCL1 = rat CXCL1 (Rattus norvegicus, UniProt P14095); test: SPR
rat CXCL2 = rat CXCL2 (Rattus norvegicus, UniProt P30348); test: SPR
rat CXCL3 = rat CXCL3 (Rattus norvegicus, UniProt Q10746); test: SPR
rat CXCL3, sequence (Q10746 33-101): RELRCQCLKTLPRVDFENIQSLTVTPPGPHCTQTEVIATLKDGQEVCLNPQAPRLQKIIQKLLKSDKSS

human CXCL17, sequence (Q6UXB2 22-119): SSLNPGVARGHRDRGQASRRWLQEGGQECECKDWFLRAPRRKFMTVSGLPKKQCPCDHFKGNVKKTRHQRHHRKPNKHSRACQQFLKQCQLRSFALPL
rat CXCL1, sequence (P14095 25-96): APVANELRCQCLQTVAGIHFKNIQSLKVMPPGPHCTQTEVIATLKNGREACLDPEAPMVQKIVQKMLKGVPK
mouse CXCL1, sequence (P12850 25-96): as the sequence (P14095 25-96) above, with V3I, V15M, F20L, M29L, P31S, M58L counted along it
human CXCL13, sequence (O43927 23-109): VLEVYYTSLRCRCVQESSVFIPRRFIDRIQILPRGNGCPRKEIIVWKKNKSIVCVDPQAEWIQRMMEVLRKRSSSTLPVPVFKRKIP
human CXCL1, sequence (P09341 35-107): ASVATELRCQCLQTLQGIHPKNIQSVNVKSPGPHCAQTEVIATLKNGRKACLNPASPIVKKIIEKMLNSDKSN
mouse CXCL3, sequence (Q6W5C0 32-100): as the sequence (Q10746 33-101) above, with R1S, K9N, N18T, A52G, K57I, Q60K, L62I, D66G counted along it
human CXCL14, sequence (O95715 35-111): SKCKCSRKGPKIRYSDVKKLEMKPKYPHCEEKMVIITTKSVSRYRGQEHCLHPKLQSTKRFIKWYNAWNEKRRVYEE
human CXCL10, sequence (P02778 22-98): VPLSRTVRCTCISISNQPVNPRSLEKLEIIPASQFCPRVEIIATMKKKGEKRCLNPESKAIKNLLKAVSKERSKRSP
human CXCL16, sequence (Q9H2A7 30-254): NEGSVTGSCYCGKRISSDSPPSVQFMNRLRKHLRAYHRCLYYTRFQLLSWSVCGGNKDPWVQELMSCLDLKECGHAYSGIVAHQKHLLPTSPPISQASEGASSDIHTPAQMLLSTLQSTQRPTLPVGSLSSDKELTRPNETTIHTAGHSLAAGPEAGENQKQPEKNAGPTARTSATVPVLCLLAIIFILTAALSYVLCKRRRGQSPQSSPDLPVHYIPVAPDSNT
mouse CXCL2, sequence (P10889 28-100): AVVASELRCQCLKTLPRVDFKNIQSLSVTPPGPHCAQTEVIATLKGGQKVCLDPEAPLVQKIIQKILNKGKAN
human CXCL4, sequence (P02776 32-101): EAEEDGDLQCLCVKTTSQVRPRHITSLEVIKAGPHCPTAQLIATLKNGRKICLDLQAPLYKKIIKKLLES
human CXCL12, sequence (P48061 22-93): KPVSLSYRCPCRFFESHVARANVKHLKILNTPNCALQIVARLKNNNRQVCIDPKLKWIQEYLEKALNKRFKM
rat CXCL2, sequence (P30348 32-100): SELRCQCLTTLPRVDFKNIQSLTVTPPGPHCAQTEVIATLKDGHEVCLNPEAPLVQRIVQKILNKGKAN

B1: 1581 (antibody, V domains shown)
VH: QVHVKQSGAELVKPGASVRLSCTASGYTFTSYWMHWVKQRPGQGLEWIGNINPNSGSANYNEKFKSKATLTVDTSSSTAYMQLSSLTSEDSAVYYCTREGPYSYYPVRVYYGLDYWGQGTSVTVSS
VL: DIVLTQSPATLSVTPGDRVSLSCRASQSISNNLHWYQQKSHESPRLLIKYTSQSVSGIPSRFSASGSGTDFTLSINSVETEDFGMYFCQQSNSWPLTFGAGTKLELK
Question: Does B1 bind (human CXCL1)?
Answer: Result: binds

B2: LY3041658 (antibody, V domains shown)
VH: QVQLVQSGAEVKKPGASVKVSCKASGYEFTSYWIHWVRQAPGQGLEWMGNISPNSGSANYNEKFKSRVTMTRDTSTSTVYMELSSLRSEDTAVYYCAREGPYSYYPSREYYGSDLWGQGTLVTVSS
VL: EIVLTQSPATLSLSPGERATLSCRASQSISNNLHWYQQKPGQAPRLLIYYTSRSVSGIPARFSGSGSGTDFTLTISSLEPEDFAVYYCGQNNEWPEVFGGGTKVEIK
Question: Does B2 bind (human CXCL4)?
Answer: Result: no binding (tested: 20 µg/mL)

Question: Does B2 bind (human CXCL10)?
Answer: Result: no binding (tested: 20 µg/mL)

Question: Does B2 bind (human CXCL12)?
Answer: Result: no binding (tested: 20 µg/mL)

Question: Does B2 bind (human CXCL13)?
Answer: Result: no binding (tested: 20 µg/mL)

Question: Does B2 bind (human CXCL14)?
Answer: Result: no binding (tested: 20 µg/mL)

Question: Does B2 bind (human CXCL16)?
Answer: Result: no binding (tested: 20 µg/mL)

Question: Does B2 bind (human CXCL17)?
Answer: Result: no binding (tested: 20 µg/mL)

Question: And the Kd (mouse CXCL1)?
Answer: The Kd was roughly 0.2 nM.

Question: And the Kd (mouse CXCL2)?
Answer: Its Kd is roughly 0.2 nM.

Question: What about the Kd (mouse CXCL3) of the same binder?
Answer: Its Kd is roughly 0.2 nM.

Question: What about the Kd (rat CXCL1) of the same binder?
Answer: Its Kd is roughly 0.2 nM.

Question: What about the Kd (rat CXCL2) of the same binder?
Answer: The Kd was roughly 0.2 nM.

Question: What about the Kd (rat CXCL3) of the same binder?
Answer: The Kd was roughly 0.2 nM.
